This note sets out measurements from patent US20240368275A1 (ELPIS BIOPHARMACEUTICALS, published 2024).

For test [1], the target named is T1, full-length human Nectin4 with C-terminal flag and Myc tags on CHO cells (human, UniProt Q96NY8 32-510).
T1 sequence (looked up): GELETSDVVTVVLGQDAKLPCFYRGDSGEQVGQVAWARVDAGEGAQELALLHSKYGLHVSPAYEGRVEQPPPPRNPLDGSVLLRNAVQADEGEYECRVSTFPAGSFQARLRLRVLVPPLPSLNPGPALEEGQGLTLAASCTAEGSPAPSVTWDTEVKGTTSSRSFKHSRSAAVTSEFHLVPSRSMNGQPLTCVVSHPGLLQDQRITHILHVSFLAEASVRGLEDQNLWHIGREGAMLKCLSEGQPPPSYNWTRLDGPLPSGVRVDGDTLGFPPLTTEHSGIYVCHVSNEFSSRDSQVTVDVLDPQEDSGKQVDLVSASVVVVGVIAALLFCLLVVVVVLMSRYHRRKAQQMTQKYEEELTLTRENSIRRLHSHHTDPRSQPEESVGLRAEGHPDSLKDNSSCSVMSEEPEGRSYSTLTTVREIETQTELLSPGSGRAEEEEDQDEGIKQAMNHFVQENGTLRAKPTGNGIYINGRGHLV
The test can be described thus: cell-based or functional assay.

In a further test the target is T2, mouse nectin4 protein (mouse, UniProt Q8R007 31-347, limits assumed).
T2 sequence (looked up): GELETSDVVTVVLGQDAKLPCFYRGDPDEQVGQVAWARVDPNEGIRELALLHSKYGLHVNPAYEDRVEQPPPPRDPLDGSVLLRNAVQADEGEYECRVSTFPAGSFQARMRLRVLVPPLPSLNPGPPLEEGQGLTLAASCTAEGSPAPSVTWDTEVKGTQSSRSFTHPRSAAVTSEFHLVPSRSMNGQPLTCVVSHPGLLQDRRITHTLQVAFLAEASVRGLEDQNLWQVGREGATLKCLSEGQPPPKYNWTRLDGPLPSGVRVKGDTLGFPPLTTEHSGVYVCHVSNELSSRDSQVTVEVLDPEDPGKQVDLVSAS
The test can be described thus: ELISA, coated mouse nectin4, IgG titrated, anti-hFc HRP. For orientation: ELISA stands for enzyme-linked immunosorbent assay.

In the next test the target is monkey nectin4 protein (monkey). The test can be described thus: ELISA, coated monkey nectin4, IgG titrated, anti-hFc HRP.
In test [2] the target is T3, human Nectin4-HIS tagged recombinant protein (human, UniProt Q96NY8 32-349).
T3 construct: also called hNectin4-HIS; Nectin4 HIS tagged protein; not shown: HIS tag
T3 sequence (looked up): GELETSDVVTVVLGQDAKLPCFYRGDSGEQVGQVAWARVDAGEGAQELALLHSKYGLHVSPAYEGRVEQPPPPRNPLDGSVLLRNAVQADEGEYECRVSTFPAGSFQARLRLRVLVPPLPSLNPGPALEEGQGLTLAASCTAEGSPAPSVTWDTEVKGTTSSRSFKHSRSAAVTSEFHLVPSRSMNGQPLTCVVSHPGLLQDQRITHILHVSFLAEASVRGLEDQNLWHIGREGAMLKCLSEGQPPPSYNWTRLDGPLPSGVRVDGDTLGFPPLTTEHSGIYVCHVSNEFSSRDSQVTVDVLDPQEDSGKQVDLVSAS
The test can be described thus: ELISA, coated human Nectin4-HIS, IgG titrated, anti-hFc HRP. As for the experimental part:
An ELISA assay was developed to determine the EC₅₀ of exemplary anti-Nectin4 IgG antibodies. Briefly, 384 well plate was immobilized with human Nectin4-HIS tagged recombinant protein at final concentration of 2 ug/mL in 1×PBS in total volume of 25 uL per well. The plate was incubated overnight at 4° C. followed by blocking with 80 uL of superblock per well for 1 hour. Titration of purified anti-Nectin4 IgG starting at 200 nM 2-fold serial dilution, 25 uL was added to human Nectin4 immobilized wells and incubated for 1 hour with shaking. The Nectin4 binding was detected by adding 25 uL of anti-hFc HRP diluted at 1:5000 in 1×PBST. In between each step, the plate was washed 3 times with 1×PBST in a plate washer. The plate was then developed with 20 ul of TMB substrate for 5 mins and stopped by adding 20 ul of 2N sulfuric acid. The plate was read at OD450 nm Biotek plate reader and then plotted in Prism 8.1 software.

The target of test [3] is T3, human Nectin4-HIS tagged recombinant …. The test can be described thus: ELISA, coated human Nectin4-HIS, antibody titrated, anti-hFc HRP.
The target of test [4] is T1, full-length human Nectin4 with …. The test can be described thus: flow cytometry, IgG on Nectin4/CHO cells, anti-hFc Alexa fluor 647. How it is done: 200 nM of purified anti-Nectin4 IgG antibodies were diluted in full medium and incubated with Nectin4/CHO and CHO cells in 96 wells plate on ice for 1 hour. Cells were spun down at 1200 rpm for 5 minutes at 4° C. to remove primary antibodies. Cells were then washed once with 200 uL of full medium per well. Samples were detected with anti-hFc Alexa fluor 647 by adding 100 uL of diluted secondary antibody and incubated at 4° C. for 30 minutes in the dark. Samples were spun down at 1200 rpm for 5 minutes at 4° C. and washed twice with 200 uL of 1×PBS per well. Reconstituted samples in 200 uL of 1×PBS and read on Attune NxT cytometer. Analysis was done by Attune NxT software plotting the overlay histogram of […] proteins binding onto both negative and target cell lines.

The target in test [5] is T3, human Nectin4-HIS tagged recombinant …. The test can be described thus: SPR Biacore T200, IgG captured on Protein A chip, hNectin4-HIS injected. As for the experimental part:
Kinetic analysis of anti-Nectin4 IgG has been assessed by the SPR technology with Biacore T200. The assay was run with Biacore T200 control software version 2.0. For each cycle, 1 ug/mL of anti-hNectin4-IgG was captured for 60 seconds at flow rate of 10 ul/min on flow cell 2 in 1×HBSP buffer on Protein A sensor chip. 2-fold serial hNectin4-HIS tagged protein was injected onto both reference flow cell 1 and anti-Nectin4 IgG captured flow cell 2 for 150 seconds at flow rate of 30 ul/mins followed by wash for 300 seconds. The flow cells were then regenerated with Glycine pH2 for 60 seconds at flow rate of 30 ul/mins. 8 concentration points from 100-0 nM was assayed per anti-Nectin4 IgG in a 96 well plate. The kinetics of Anti-Nectin4 IgG binding to Nectin4 protein was analyzed with Biacore T200 evaluation software version 3.0. The specific binding response unit was derived from subtraction of binding to reference flow cell 1 from antibody captured flow cell 2.
Background: Surface plasmon resonance follows binding to a sensor surface in real time, without labels.

B1: 2020EP034-B09 IgG (EP299/EP289) (antibody, V domains shown)
VH: EVQLVQSGAEVKKPGASVKVSCKASGYTFTGYYMHWVRQAPGQGLEWMGRINPNSGGTNYAQKFQGRVTMTRDTSISTAYMELSGLRSDDTAVYFCARVTYNIGWYIDYWGQGTLVTVSS
VL: QAVVTQPPSVSVAPGKTATITCGGNNIGSKGVHWYQQKPGQAPVLVIYYDTDRPSGIPERLSGSNSGNTATLTISRVEAGDEADYYCQVWDSSSDHPVFGGGTKLTVLG
notes: Human IgG1 with lambda light chain; entries without signal peptide used; also called EP034-B09, mAb
In general, EC50 refers to the concentration at which the effect is half-maximal. The Kd is the concentration at which binding is half-saturated. On to B1, for which the “ADCC Bioreporter assay EC50” value in test [1] worked out at 1.16 nM. Moreover, the half-maximal effective concentration (EC50) with mouse nectin4 protein was determined as 0.017 nM; with monkey nectin4 protein, 0.019 nM; in test [2], 0.018 nM; in test [3] it was 0.061 nM; in test [4], 0.0062 nM. Besides, in test [5], the Kd was 1.47 nM.
